Where two headings read alike, the source gives them in different places. Oligonucleotides are written 5' to 3', each unit as a sugar letter and its base; * is a phosphorothioate linkage, no mark a phosphodiester; rarer units and linkages stand in square brackets, end groups in braces. Plain capitals give the bases only. d = 2'-deoxy (DNA); r = 2'-OH (RNA); f = 2'-fluoro
B1: AMX205.F9: rRdY aptamer clone (nucleic acid)
chain: rGrGrArGdCrGdCrAdCdTdCrArGdCdCrAdCrGrGrArGdCrGdTdCrGrGdTrGrAdTrGrGrAdTdTrArGdCrGdCrGrGdCdTdCdCrGdTrGrGdTrAdCrGdCdCdTdTdTdCrGrAdCdCdTdCdTdCdTrGdCdTrArGdC
B2: AMX203.A1: rRdY aptamer clone (nucleic acid)
chain: rGrGrArGdCrGdCrAdCdTdCrArGdCdCrAdCrArGdTdTdCdTrGdTdCrGrGdTrGrAdTrGrArAdTdTrArGdCrGdCrGrGrGrArGdCdTrGdTrGrGrGrAdCrGdTdTdTdCrGrAdCdCdTdCdTdCdTrGdCdTrArGdC
B3: AMX206.H9: rRdY aptamer clone (nucleic acid)
chain: rGrGrArGdCrGdCrAdCdTdCrArGdCdCrAdCrGrGrArGdCrGdTdCrGrGdTrGrAdTrGrGrAdTdTrArGdCrGdCrGrGdTdTdCdCrGdTrGrGdTrAdCrAdCdCdTdTdTdCrGrAdCdCdTdCdTdCdTrGdCdTrArGdC
B4: AMX206.E7: rRdY aptamer clone (nucleic acid)
chain: rGrGrArGdCrGdCrAdCdTdCrArGdCdCrAdCrGrGrArGdCrGdTdCrGrGdTrGrAdTrGrGrAdTdTrArGdCrGdCrGrGdCdTdCdCrGdTrGrGdTrAdCrAdCdCdTdTdTdCrGrAdCdCdTdCdTdCdTrGdCdTrArGdC
B5: AMX205.H11: rRdY aptamer clone (nucleic acid)
chain: rGrGrArGdCrGdCrAdCdTdCrArGdCdCrAdCrGrGdCrAdCrGrAdCrGrGdTrGrAdTrGrGrAdTdTrArGdCrGdCrGrGdTrGdTdCrGrGdTrGrGdTrGdTdCrAdTdTdTdCrGrAdCdCdTdCdTdCdTrGdCdTrArGdC
B6: AMX203.D6: rRdY aptamer clone (nucleic acid)
chain: rGrGrArGdCrGdCrAdCdTdCrArGdCdCrAdCrArGdTdTdCdTrGdTdCrGrGdTrGrAdTrGrArAdTdTrArGdCrGdCrGrArGrArGdCdTrGdTrGrGrGrAdCrGdTdTdTdCrGrAdCdCdTdCdTdCdTrGdCdTrArGdC
B7: AMX205.D11: rRdY aptamer clone (nucleic acid)
chain: rGrGrArGdCrGdCrAdCdTdCrArGdCdCrAdCrGrGdCrAdCrGrAdCrGrGdTrGrAdTrGrArAdTdTrArGdCrGdCrGrGdTrGdTdCrGrGdTrGrGdTrGdTdCrAdTdTdTdCrGrAdCdCdTdCdTdCdTrGdCdTrArGdC
B8: AMX201.G1: rRfY aptamer clone (nucleic acid)
chain: rGrGrArGfCrGfCrAfCfUfCrArGfCfCrAfCrGfCfUfCrGrGfUrGrGrGrGrArArAfUfUfUfUrArGfCfCfUrArAfUfUrGrGfCfUrAfCfUfUrGfUrGfCrGfUfUfUfCrGrAfCfCfUfCfUfCfUrGfCfUrArGfC
B9: AMX205.H8: rRdY aptamer clone (nucleic acid)
chain: rGrGrArGdCrGdCrAdCdTdCrArGdCdCrAdCrArArAdCrGrGrAdCrGrGdTrGrAdTrGrGrAdTdTrArAdCrGdCrGrGrGdTdTdTrAdTrGrGdCrArArGrGdTdTdTdCrGrAdCdCdTdCdTdCdTrGdCdTrArGdC
B10: AMX206.A10: rRdY aptamer clone (nucleic acid)
chain: rGrGrArGdCrGdCrAdCdTdCrArGdCdCrAdCrGrGdCrAdTrGrAdCrGrGdTrGrAdTrGrArAdTdTrArGdCrGdCrGrGdTrGdTdCrGrGdTrGrGdTrGdTdCrAdTdTdTdCrGrAdCdCdTdCdTdCdTrGdCdTrArGdC
B11: AMX206.F9: rRdY aptamer clone (nucleic acid)
chain: rGrGrArGdCrGdCrAdCdTdCrArGdCdCrAdCrGrGrArGdCrGdTdCrGrGdTrGrAdTrGrGrAdTdTrArGdCrGdCrGrGdCdTdCdCrGdTrGrGdTrAdCrAdCrAdTdTdTdCrGrAdCdCdTdCdTdCdTrGdCdTrArGdC
B12: AMX205.H9: rRdY aptamer clone (nucleic acid)
chain: rGrGrArGdCrGdCrAdCdTdCrArGdCdCrAdCrGrAdCrGrGdTrGrAdTrGrGrAdTdTrArGdCrGdCrGrGdTrGrGrArGrArArGrAdTrGdCrGdCdTrGdTdTrGdTdTdTdCrGrAdCdCdTdCdTdCdTrGdCdTrArGdC
B13: AMX206.D7: rRdY aptamer clone (nucleic acid)
chain: rGrGrArGdCrGdCrAdCdTdCrArGdCdCrAdCrGrGdCrAdCrGrAdCrGrGdTrGrAdTrGrArAdTdTrArGdCrGdCrGrGdTrGdTdCrGrGdTrGrGdTrGdTdTrAdTdTdTdCrGrAdCdCdTdCdTdCdTrGdCdTrArGdC
B14: AMX198.G1: rRfY aptamer clone (nucleic acid)
chain: rGrGrArGfCrGfCrAfCfUfCrArGfCfCrAfCrArAfCrAfCfUrArAfUrGrGrGrGrArArArGfUfUfCrArArGrGrAfUfUfCfUfUrGrAfCfCrGrGfUrGfCrGfUfUfUfCrGrAfCfCfUfCfUfCfUrGfCfUrArGfC

Tests used:
[1] = target: T1, human vWF A1 domain (SEQ ID NO 5) (Homo sapiens, UniProt P04275, T1381A); test: 3-point dot blot screen, human vWF A1 domain; type: binding; details: 100 nM human vWF A1 domain
Summary of the method: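 Values are ratios of aptamer fraction retained on nitrocellulose with 100 nM vWF A1 domain (human or rabbit) versus a no-protein control. Unique clones from rounds 9 and 12 pools were transcribed, desalted and 5'-32P labeled before this three-point dot blot screen.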

[2] = tested on: rabbit vWF A1 domain (SEQ ID NO 6); test: 3-point dot blot screen, rabbit vWF A1 domain; type: binding; details: 100 nM rabbit vWF A1 domain, ratio of fraction bound with target to without
Summary of the method: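 Rabbit vWF A1 domain binding was screened by dot blot using three conditions: no target protein, human vWF, and rabbit vWF A1 domain at 100 nM (20 nM in the screen run twice). Radiolabeled aptamer bound to nitrocellulose was quantified, and results are expressed as the ratio of bound fraction with protein to bound fraction without protein.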

[3] = tested on: full length human vWF binding to lyophilized platelets; test: Full length human von Willebrand Factor platelet binding assay (FACS); type: cell-based; details: 5 nM full length human vWF, lyophilized platelets, botrocetin; both bounds in nM
Description: The amount of vWF bound to fixed platelets can be measured with an antibody to vWF. The fluorescence signal from bound antibody incubated with a fluorescein conjugated secondary antibody is then detected and quantified by flow cytometry. The ability of an aptamer of the invention to block vWF binding to platelets is correlated with a reduction in fluorescence signal.
Aptamer potency to block human vWF binding to lyophilized platelets was assessed by flow cytometric analysis. Titrations of aptamers (0 nM, 0.1 nM to 1000 nM) were pre-incubated briefly with 5 nM of full length human vWF in FACS buffer (PBS plus 0.5% bovine serum albumin) at room temperature in a volume of 50 uL. Another 50 uL containing 5 uL of lyophilized platelets plus 1 uL of 0.1 U/uL of botrocetin in FACS buffer was added to aptamer/vWF. This reaction was allowed to proceed for 15 minutes at 37 degrees C. after which 200 uL of FACS buffer was added. Platelets were collected by a 6 minute spin at 1470 RCF and the supernatant was discarded. The pellets were resuspended in 100 uL of FACS buffer containing a 1:100 dilution of anti-vWF antibody and were incubated at room temperature for 30 minutes. After dilution with 200 uL of FACS buffer, the platelets were spun at 1470 RCF for 6 minutes and the supernatant was discarded. The pellets were resuspended in a 1:100 solution of anti-IgG2a-FITC antibody and were incubated in the dark for 30 minutes at room temperature. The entire 100 uL was diluted into 200 uL of FACS buffer and analyzed immediately by flow cytometric analysis in the FACSCAN. Artifactual data from contaminating debris was eliminated from the analysis by drawing a gate around the population of single and aggregated platelets. Mean fluorescent intensity (“MFI”) readings were quantified for each sample analyzed by flow cytometry. Background MFI was subtracted from all data points. Percent inhibition was reported by calculating the percent value of binding of full length human vWF to platelets in the presence of aptamer at a given concentration relative to binding in the absence of any aptamer (see FIG. 7). IC50 values were determined by fitting the percent inhibition of vWF binding to platelets as a function of aptamer concentration to the equation: % inhibition=% inhibitionmax/(1+IC50/aptamer conc.)

[4] = target: T1, human vWF A1 domain (SEQ ID NO 5); test: dot blot KD determination, human vWF A1 domain
Description: For KD determination, aptamers transcripts were purified on 10% denaturing polyacrylamide gels, 5′ end labeled with γ-^32P ATP.
For KD determination, aptamers were purified on denaturing polyacrylamide gels and 5′-end labeled with γ-^32P ATP. A 6 point protein titration of human vWF A1 domain (SEQ ID NO 5) was used in the dot blot assay (333 nM, 100 nM, 33 nM, 10 nM, 3 nM, 0 nM) in 1×DPBS plus 0.1 mg/mL BSA at room temperature for 30 minutes. KD values were calculated by fitting the equation y=(max/(1+K/protein))+yint using KaleidaGraph (KaleidaGraph v. 3.51, Synergy Software).
KD values were calculated by fitting the equation y=(max/(1+K/protein))+yint using KaleidaGraph (KaleidaGraph v. 3.51, Synergy Software).
All minimer sequences were transcribed, gel-purified on 15% denaturing polyacrylamide gels, 5-^32 end-labeled with γ^32P ATP, and then desalted using two Centri-Spin 10 columns (Princeton Separations Cat. #CS-101, Adelphia, N.J.). For KD determination, minimer transcripts were tested for direct binding to full length human vWF (SEQ ID NO 7), human vWF A1 domain (SEQ ID NO 5), and rabbit vWF A1 domain (SEQ ID NO 6) using an 8 point protein titration from 0-300 nM (3 fold dilutions) in 1× Dulbecco's PBS containing 0.1 mg/mL BSA (in a final volume of 50 uL) for 30 minutes at room temperature and then applied to a nitrocellulose and nylon filter sandwich in a dot blot apparatus (Schleicher and Schuell, Keene, N.H.). KD values were calculated by fitting the equation y=(max/(1+K/protein))+yint using KaleidaGraph (KaleidaGraph v. 3.51, Synergy Software).
All minimer DNA sequences were chemically synthesized, 5-^32P end-labeled with γ-^32P ATP, and then desalted using two Centri-Spin 10 columns (Princeton Separations, Cat. #CS-101, Adelphia, N.J.). […] KD values were calculated by fitting the equation y=(max/(1+K/protein))+yint using KaleidaGraph (KaleidaGraph v. 3.51, Synergy Software).

[5] = rRdY aptamers, ratio of fraction bound with target to without
[6] = read-out: Human A1 KD, rRdY aptamers, 6 point protein titration
[7] = rRfY aptamers, ratio of fraction bound with target to fraction bound without target
[8] = read-out: human A1 KD, rRfY aptamers, 8 point titration of human vWF A1 domain

rabbit vWF A1 domain (SEQ ID NO 6), sequence (as listed by the source): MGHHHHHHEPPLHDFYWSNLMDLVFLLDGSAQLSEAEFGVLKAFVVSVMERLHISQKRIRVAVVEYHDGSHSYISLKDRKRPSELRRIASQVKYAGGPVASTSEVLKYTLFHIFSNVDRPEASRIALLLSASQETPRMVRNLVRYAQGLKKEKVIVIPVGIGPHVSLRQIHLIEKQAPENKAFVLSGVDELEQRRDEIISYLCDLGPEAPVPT
T1 sequence (P04275 with tags, fused parts or gaps T1381A): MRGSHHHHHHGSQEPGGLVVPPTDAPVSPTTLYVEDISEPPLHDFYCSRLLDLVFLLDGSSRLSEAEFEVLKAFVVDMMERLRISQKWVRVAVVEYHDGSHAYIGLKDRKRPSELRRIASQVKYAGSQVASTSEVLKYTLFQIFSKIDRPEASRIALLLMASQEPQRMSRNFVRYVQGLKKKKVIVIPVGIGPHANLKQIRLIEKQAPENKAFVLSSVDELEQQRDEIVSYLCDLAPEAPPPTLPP

Row | Molecule | Screen- Human/No Protein [1, 5] | Screen- Rabbit/No Protein ([2]; rRdY aptamers) | Inhibition of full length hVWF binding in FACS assay, IC50 range [3] | Kd [4, 6] [µM] | Screen- Human/No Protein [1, 7] | Screen- Rabbit/No Protein ([2]; rRfY aptamers) | Kd [4, 8] [µM]
1 | B1 | 2.22 | 2.47 | no activity | 0.145 | – | – | –
2 | B2 | 2.99 | 2.67 | no activity | 1.15 | – | – | –
3 | B3 | 1.98 | 2.31 | no activity | 0.109 | – | – | –
4 | B4 | 2.11 | 2.26 | no activity | 0.151 | – | – | –
5 | B5 | 2.18 | 2.41 | no activity | 0.144 | – | – | –
6 | B6 | 1.92 | 1.57 | no activity | 0.523 | – | – | –
7 | B7 | 2.22 | 2.07 | no activity | 0.124 | – | – | –
8 | B8 | – | – | no activity | – | 2.14 | 2.20 | 0.19
9 | B9 | 2.04 | 2.84 | no activity | 0.788 | – | – | –
10 | B10 | 2.62 | 2.58 | no activity | 0.111 | – | – | –
11 | B11 | 2.98 | 3.00 | no activity | 0.139 | – | – | –
12 | B12 | 2.36 | 3.14 | no activity | 0.178 | – | – | –
13 | B13 | 2.19 | 2.08 | no activity | 0.187 | – | – | –
14 | B14 | – | – | no activity | – | 1.89 | 1.90 | 0.045

From US7998940B2, “Aptamers to von Willebrand factor and their use as thrombotic disease therapeutics” (Archemix Corp., priority 2004, dated 2011)
